Source: PMC5798305

Biological target: naked mole-rat ASIC1b (naked mole-rat)

pH EC50 of proton-gated currents, whole-cell patch clamp of CHO cells cotransfected with nmrASIC3 + nmrASIC1b: 5.58 pH
Substance: naked mole-rat ASIC3 (natural protein)
